This note sets out measurements from the supplement of paper PMC9233669.

Fewer inactive variants are shown than the library holds.

In the data set the test system is biotinyl-Phe-oxazolone. Description: self-aminoacylation, catalytic enhancement (BFO) (fold over background); higher = more active; k-Seq, kA / k0A0; sequences stand for … in GGGAAUGGAUCCACAUCUACGAAUUC…UUCACUGCAGACUUGACGAAGCUG
A digest of the protocol:
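The uncatalyzed rate is the low-activity peak of a bimodal Gaussian fit, and catalytic enhancement is median kA divided by it. The kA values came from pseudo-first-order fits, with 1000 bootstraps, of per-sequence fraction reacted measured by streptavidin capture, triplicate qPCR and Illumina sequencing. Mutagenized RNA pools with a 21-nt variable region (0.43 μM) were reacted with each biotinyl-aminoacyl-oxazolone at 2–1250 μM in 50 μL HEPES/NaCl/KCl/MgCl2/CaCl2 buffer with 5% acetonitrile, pH 6.9–7.0, for 90 minutes at room temperature.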
As for “AAGUUCGCUAGUAGUCGCAAG [Fam3.1 aminoacylation ribozyme variant]”, the self-aminoacylation amounted to 4.51.

In the case of “AUUCACCUAGGUCGUCUGGUG [Fam2.2 aminoacylation ribozyme variant]”, the self-aminoacylation is 5.84.

In the case of “AAGGUUGCUAAUAGUCCCAAG [Fam3.1 aminoacylation ribozyme variant]”, the self-aminoacylation came out at 2.86.

As to “AAGUCUGCUGAUAGUCGCAAG [Fam3.1 aminoacylation ribozyme variant]”, the self-aminoacylation turned out to be 3.91.

For “AUUCACUUAGGUCGUCGGGUG [Fam2.2 aminoacylation ribozyme variant]”, the self-aminoacylation was 4.92.

Consider “AUUCACCUAGGUGAGCGGGUG [Fam2.2 aminoacylation ribozyme variant]”, for which the self-aminoacylation was 7.25.

Consider “AUUACCCUGGUCAUCGUGUGU [Fam2.1 aminoacylation ribozyme variant]”, for which the self-aminoacylation was 2.45.

As to “GUACUGCAAACAAUCGGUCUG [Fam1A.1 aminoacylation ribozyme variant]”, the self-aminoacylation came out at 3.7.

For the sequence “AAGUAUGCUAAGAGUCGCAAG [Fam3.1 aminoacylation ribozyme variant]”, the self-aminoacylation stood at 4.08.

In the case of “AAGCUUACUAAUAGUCGCAAG [Fam3.1 aminoacylation ribozyme variant]”, the self-aminoacylation came to 3.02.

Take “CUAGUUCAAACAAUCGGUAUG [Fam1A.1 aminoacylation ribozyme variant]”: the self-aminoacylation was 3.27.

Take “AUUCACCUAGGUCAUCCGGUU [Fam2.2 aminoacylation ribozyme variant]”: the self-aminoacylation was found to be 9.74.

Take “AAGUCUCCUAAUAGUCGCAAG [Fam3.1 aminoacylation ribozyme variant]”: the self-aminoacylation came to 3.11.

Consider “AAGUUUGCUAACAGUCGCAGG [Fam3.1 aminoacylation ribozyme variant]”, for which the self-aminoacylation came to 3.44.

On to “AAGUUAGCUAAUUGUCGCAAG [Fam3.1 aminoacylation ribozyme variant]”, for which the self-aminoacylation was determined as 2.54.

Regarding “CGACACUUCAGGCAAUCGGUC [Fam1B.1 aminoacylation ribozyme variant]”, the self-aminoacylation was 2.04.

With “AAGUUUCCAAAUAGUCGCAAG [Fam3.1 aminoacylation ribozyme variant]”, the self-aminoacylation was 2.83.

“AAGUUUGGUAAAAGUCGCAAG [Fam3.1 aminoacylation ribozyme variant]”: the self-aminoacylation came to 2.32.

“AAGAUGGCUAAUAGUCGCAAG [Fam3.1 aminoacylation ribozyme variant]”: the self-aminoacylation came out at 2.14.

In the case of “AAGUUUUCUAAUAGCCGCAAG [Fam3.1 aminoacylation ribozyme variant]”, the self-aminoacylation came out at 2.19.

On to “AUUCACCUAGGUCAUCCGGUC [Fam2.2 aminoacylation ribozyme variant]”, for which the self-aminoacylation was found to be 4.67.

Take “CCACAUUUCAAGAAAUCGGUC [Fam1B.1 aminoacylation ribozyme variant]”: the self-aminoacylation is 2.09.

In the case of “CUACUGCAAACAGUCGGUCUG [Fam1A.1 aminoacylation ribozyme variant]”, the self-aminoacylation turned out to be 2.04.

On to “AAGUUUGCUAAUACUCGCGAG [Fam3.1 aminoacylation ribozyme variant]”, for which the self-aminoacylation came out at 5.73.

Take “AAGGUUGCUACUAGUCGCAAG [Fam3.1 aminoacylation ribozyme variant]”: the self-aminoacylation amounted to 4.

Take “ACACACUUCAAGCAAUCGAUC [Fam1B.1 aminoacylation ribozyme variant]”: the self-aminoacylation worked out at 2.02.

Turning to “AAGUAUGCUAAUAGUCGCUAG [Fam3.1 aminoacylation ribozyme variant]”, the self-aminoacylation worked out at 2.24.

With “CAGUUUGCUCAUAGUCGCAAG [Fam3.1 aminoacylation ribozyme variant]”, the self-aminoacylation amounted to 2.06.

“AAGUUUACUAAUAGUCGCACG [Fam3.1 aminoacylation ribozyme variant]”: the self-aminoacylation came out at 2.22.

Consider “AUGUUUGCUAAUAGUCGGAAG [Fam3.1 aminoacylation ribozyme variant]”, for which the self-aminoacylation was 5.76.
